Laboratory results reported in US7858298 (PROGENICS PHARMACEUTICALS, dated 2010).

Assays:
[1] = biological target: T1, recombinant soluble human CD4 (human, UniProt P01730 26-396); assay: flow cytometry on human CCR5-bearing murine L1.2 cells (data not shown)
T1 construct: also called sCD4; soluble CD4

[2] = biological target: T2, complex formed between sCD4 and biotinylated HIV-1LAI gp120 (HIV-1 LAI (BRU); human, UniProt P03377 33-516; P01730 26-396); assay: as above
T2 construct: also called b-LAI:sCD4

B1: human CCR5 expressed on the cell surface (receptor)
chain: not shown
notes: whole, on cells; also called C-C CKR-5; CKR-5
binding result [1]: no binding | binding result [2]: no binding
